Source: publication PMC2830281

Legend:
Experiment in all cases: latex bead solid phase immunoassay read by flow cytometry
[1] = target: mouse IgA (native, on latex beads) (mouse)
[2] = target: mouse IgG3 (native, on latex beads) (mouse)
[3] = target: mouse IgG2b (native, on latex beads) (mouse)
[4] = target: mouse IgG1 (native, on latex beads) (mouse)
[5] = target: mouse IgG2a (native, on latex beads) (mouse)
[6] = target: mouse IgM (native, on latex beads) (mouse)

Measured: fold lower mean fluorescence intensity than beads with catfish IgM

mouse IgM (native, on latex beads) (mouse), sequence (P01872 whole entry, chain 1 of 3, other chains not shown): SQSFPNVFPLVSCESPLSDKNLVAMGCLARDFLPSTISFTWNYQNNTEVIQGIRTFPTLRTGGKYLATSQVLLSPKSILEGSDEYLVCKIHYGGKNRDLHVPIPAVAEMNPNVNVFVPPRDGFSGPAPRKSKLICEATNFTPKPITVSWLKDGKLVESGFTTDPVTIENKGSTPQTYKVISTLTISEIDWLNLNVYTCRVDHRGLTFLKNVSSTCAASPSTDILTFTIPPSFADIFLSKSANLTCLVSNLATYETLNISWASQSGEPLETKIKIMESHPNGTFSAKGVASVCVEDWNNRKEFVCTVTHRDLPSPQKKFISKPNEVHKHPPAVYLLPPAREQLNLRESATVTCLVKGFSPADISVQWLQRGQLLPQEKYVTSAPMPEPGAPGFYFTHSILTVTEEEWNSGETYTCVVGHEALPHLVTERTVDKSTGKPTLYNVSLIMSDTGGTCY
mouse IgM (native, on latex beads) (mouse), sequence (P01592 22-159, chain 3 of 3, other chains not shown, further chain): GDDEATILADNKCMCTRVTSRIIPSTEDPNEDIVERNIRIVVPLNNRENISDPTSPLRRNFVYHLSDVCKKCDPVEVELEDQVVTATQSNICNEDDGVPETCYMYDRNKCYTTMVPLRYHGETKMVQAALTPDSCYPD
mouse IgG2a (native, on latex beads) (mouse), sequence (P01863 whole entry, chain 1 of 2, other chains not shown): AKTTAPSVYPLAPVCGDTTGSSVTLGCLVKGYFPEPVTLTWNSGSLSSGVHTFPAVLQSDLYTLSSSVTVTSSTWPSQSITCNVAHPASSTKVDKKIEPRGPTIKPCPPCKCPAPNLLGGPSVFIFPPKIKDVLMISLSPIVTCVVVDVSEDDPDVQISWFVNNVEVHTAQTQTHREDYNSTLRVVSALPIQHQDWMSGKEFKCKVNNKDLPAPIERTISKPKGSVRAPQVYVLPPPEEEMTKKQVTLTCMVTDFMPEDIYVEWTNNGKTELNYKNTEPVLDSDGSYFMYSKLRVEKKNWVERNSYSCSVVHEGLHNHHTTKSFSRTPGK

recombinant IpFcRI (D1-D2-D3), channel catfish soluble FcμR (receptor)
5 fold: all assays above
